# In paper PMC3509150 (2012):
# B1: CANTDcb1 nanobody with C-terminal 6xHis-tag, purified (VHH)
# VHH: QVQLVESGGGLVQAGGSLRLSCAASGYFSSYAMGWFRQAPGKEREFVAAISWIESTTDYADSVKGRFTISRDNAKKTLHLQMNSLKPEDTAVYYCAACDIPFGQAFCALYDYWGQGTQVTVSS
# Molecular target: HIV-1 capsid protein (CA), full-length (HIV-1, UniProt P12493 133-363)
binder,measurement,value
B1,koff,0.00012 s⁻¹
